What was measured:
H3K18me2 = H3K18me2 (Homo sapiens, dimethyl-Lys18 (mature numbering); biotin, attachment site not given; limits assumed from the H3 1-21 control); experiment: FACS; yeast surface display titration
H3 22-41 = H3 22-41 (Homo sapiens, unmodified; biotin, attachment site not given); experiment: FACS; yeast surface display titration

| Kd (H3K18me2) [µM] | Kd (H3 22-41) [µM] | Binder |
| --- | --- | --- |
| 5 |  | tandem Tudor domains of UHRF1 (domain or fragment) WDETELGLYKVNEYVDARDTNMGAWFEAQVVRVTRKAPSRDEPCSSTSRPALEEDVIYHVKYDDYPENGVVQMNSRDVRARARTIIKWQDLEVGQVVMLNYNPDNPKERGFWYDAEISRKRETRTARELYANVVLGDDSLNDCRIIFVDEVFKIERPGE |
|  | 6.5 | bromo-adjacent homology domain of ASH1L (domain or fragment) NFHSFNVEKQQLCKCGFEKCRGIIGGKSQRVNGLTSSKNSQPMATHKKSGRSKEKRKSKHKLKKRRGHLSEEPSENINTPTRLTPQLQMKPMSNRERNFVLKHHVFLVRNWEKIRQKQEEVKHTSDNIHSASLYTRWNGICRDDGNIKSDVFMTQFSALQTARSVRTRRLAAAEENIEVARAARLAQIFKEICDGIISYKDSSRQALAAPLLNLPPKKKNADYYEKISDPLDLITIEKQILTGYYKTVEAFDADMLKVFRNAEKYYGRKSPVGRDVCRLRKAYYNARHEASAQIDEIVGETASEADSSETSVSEKENGHEKDDDVIRCICGLYKDEGLMIQCDKCMVWQHCDCMGVNSDVEHYLCEQCDPRPVDREVPMIPRPHYAQPGCVYFICLLRDDLLLRQGDCVYLMRDSRRTPDGHPVRQSYRLLSHINRDKLDIFRIEKLWKNEKEERFAFGHHYFRPHETHHSPSRRFYHNELFRVPLYEIIPLEAVVGTCCVLDLYTYCKGRPKGVKEQDVYICDYRLDKSAHLFYKIH |

Reference: publication PMC8836101 (2022)
